In patent publication US20260132182A1 (published 2026):
Starred links: 1 amine or outer side, 2 acyl side, 3 side chain; linkers in the order of their positions; H or OH if unused. Non-standard residues stand in square brackets, D forms with d. Groups on a side chain read outwards from the residue. *: point of attachment. C20 diacid = O=C(O)CCCCCCCCCCCCCCCCCCC(=O)*; C18 diacid = O=C(O)CCCCCCCCCCCCCCCCC(=O)*; C16 diacid = O=C(O)CCCCCCCCCCCCCCC(=O)*; γGlu = O=C(O)[C@H](CCC(=O)[*:2])N[*:1]; Desaminohistidyl = O=C(CCc1c[nH]cn1)*; εLys = N[C@@H](CCCCN[*:1])C(=O)[*:2]; Trx = NC[C@H]1CC[C@H](C(=O)O)CC1; AEEA = NCCOCCOCC(=O)O; Aib = CC(C)(N)C(=O)O

Tests used:
[1] = molecular target: T1, human amylin-3 (a) receptor (human, UniProt P30988 25-474; O60896 24-148); assay: cell-based or functional assay
T1 sequence (looked up) 1: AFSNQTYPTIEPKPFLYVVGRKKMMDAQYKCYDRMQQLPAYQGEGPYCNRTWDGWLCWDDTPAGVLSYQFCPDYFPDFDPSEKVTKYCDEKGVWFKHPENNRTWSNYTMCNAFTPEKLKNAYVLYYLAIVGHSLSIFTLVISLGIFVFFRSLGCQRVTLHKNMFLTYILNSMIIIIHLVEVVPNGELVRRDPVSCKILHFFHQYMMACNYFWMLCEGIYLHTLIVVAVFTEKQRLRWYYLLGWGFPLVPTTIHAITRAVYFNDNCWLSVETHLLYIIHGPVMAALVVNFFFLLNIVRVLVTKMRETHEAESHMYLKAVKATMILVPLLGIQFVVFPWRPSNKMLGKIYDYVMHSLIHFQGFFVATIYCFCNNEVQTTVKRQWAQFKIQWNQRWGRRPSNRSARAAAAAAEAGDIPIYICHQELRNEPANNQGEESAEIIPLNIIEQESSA
T1 sequence (looked up) 2: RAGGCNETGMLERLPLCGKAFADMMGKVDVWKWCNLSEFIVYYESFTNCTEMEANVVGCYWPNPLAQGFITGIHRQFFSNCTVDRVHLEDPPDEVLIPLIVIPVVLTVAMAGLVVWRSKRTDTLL

human GLP-1 receptor = human GLP-1 receptor (human, UniProt P43220 24-463); assay: cell-based or functional assay

| Binder | Human AmyR3 potency [EC50 (pM)] [1] | Human GLP-1R potency [EC50 (pM)] (human GLP-1 receptor) |
| --- | --- | --- |
| Compound 0434 (peptide) peptide: HWEGTFTSDVSSYLEEK([εLys-AEEA-AEEA-γGlu-Trx-C20 diacid])AAREFIEWLVRGRGEASELSTAALGRLSAELHELATLPRTETGSGSP-NH2 | 13.9 pM | 11.8 pM |
| Compound 0416 (peptide) peptide: HAEGTFTSK([AEEA-AEEA-γGlu-Trx-C20 diacid])VSSYLEEQAAREFIEWLVRGRGEASELSTAALGRLSAELHELATLPRTETGSGSP-NH2 | 18.3 pM | 105 pM |
| Compound 0294 (peptide) peptide: H[Aib]EGTFTSDVSSYLEK([AEEA-AEEA-γGlu-C16 diacid])QAAREFIAWLVRGRGGGGGASELSTAALGRLSK([AEEA-AEEA-γGlu-C16 diacid])ELHELATLPRTETGSGSP-NH2 | 34.3 pM | 13.7 pM |
| Compound 0411 (peptide) peptide: H[Aib]EGTFTSDVSSYLEEK([AEEA-AEEA-γGlu-C16 diacid])AAREFIAWLVRGRGGGGGEASELSTAALGRLSAELHELATLPRTETGK([AEEA-AEEA-γGlu-C16 diacid])GSP-NH2 | 45.9 pM | 3.5 pM |
| Compound 0299 (peptide) peptide: H[Aib]EGTFTSDVSSYLEEK([AEEA-AEEA-γGlu-C16 diacid])AAREFIAWLVRGRGGGGGEASELSTAALGRLSAELHK([AEEA-AEEA-γGlu-C16 diacid])LATLPRTETGSGSP-NH2 | 11.5 pM | 6 pM |
| Compound 0297 (peptide) peptide: H[Aib]EGTFTSDVSSYLEEQAAREFIAWLVRK([AEEA-AEEA-γGlu-C16 diacid])RGGGGGASELSTAALGRLSK([AEEA-AEEA-γGlu-C16 diacid])ELHELATLPRTETGSGSP-NH2 | 46 pM | 30.2 pM |
| Compound 0440 (peptide) peptide: H[Aib]EGTFTSDK([AEEA-AEEA-γGlu-Trx-C20 diacid])SSYLEEQAAREFIEWLVRGRGEASELSTAALGRLSAELHELATLPRTETGSGSP-NH2 | 10.4 pM | 5.7 pM |
| Compound 0436 (not fully specified (residue 20)) peptide: H[Aib]EGTFTSDVSSYLEEQAAKEFIEWLVRGRGEASELSTAALGRLSAELHELATLPRTETGSGSP-NH2 | 12.3 pM | 15.2 pM |
| Compound 0045 (peptide) peptide: H[Aib]EGTFTSDVSSYLEGQAAKEFIAWLVRGRK([εLys-AEEA-AEEA-γGlu-C18 diacid])GGEASELSTAALGRLSAELHELATLPRTETGSGSP-NH2 | 25.9 pM | 19.4 pM |
| Compound 0051 (peptide) peptide: [Desaminohistidyl]AEGTFTSDVSSYLEEQAAREFIAWLVRGRK([AEEA-AEEA-γGlu-C18 diacid])EASELSTAALGRLSAELHELATLPRTETGSGSP-NH2 | 19.5 pM | 14.3 pM |
| Compound 0295 (peptide) peptide: H[Aib]EGTFTSDVSSYLEEK([AEEA-AEEA-γGlu-C16 diacid])AAREFIAWLVRGRGGGGGASELSTAALGRLSK([AEEA-AEEA-γGlu-C16 diacid])ELHELATLPRTETGSGSP-NH2 | 32.7 pM | 4.8 pM |
| Compound 0292 (peptide) peptide: H[Aib]EGTFTSDK([AEEA-AEEA-γGlu-C16 diacid])SSYLEEQAAREFIAWLVRGRGGGGGASELSTAALGRLSK([AEEA-AEEA-γGlu-C16 diacid])ELHELATLPRTETGSGSP-NH2 | 33.8 pM | 12 pM |
| Compound 0396 (peptide) peptide: H[Aib]EGTFTSDVSSYLEEK([AEEA-AEEA-γGlu-C16 diacid])AAREFIAWLVRGRGGGGGEASELSTAALGRLSAELHELK([AEEA-AEEA-γGlu-C16 diacid])TLPRTETGSGSP-NH2 | 32.8 pM | 4.8 pM |
| Compound 0414 (peptide) peptide: HAEGTFTSDVSSYLEEK([AEEA-AEEA-γGlu-Trx-C20 diacid])AAREFIEWLVRGRGEASELSTAALGRLSAELHELATLPRTETGSGSP-NH2 | 17.7 pM | 11.2 pM |
| Compound 0435 (peptide) peptide: HWEGTFTSDVSSYLEEQAAK([εLys-AEEA-AEEA-γGlu-Trx-C20 diacid])EFIEWLVRGRGEASELSTAALGRLSAELHELATLPRTETGSGSP-NH2 | 22.3 pM | 92.4 pM |
| Compound 0437 (peptide) peptide: HWEGTFTSDVSSYLEEQAARK([εLys-AEEA-AEEA-γGlu-Trx-C20 diacid])FIEWLVRGRGEASELSTAALGRLSAELHELATLPRTETGSGSP-NH2 | 11.8 pM | 12 pM |
| Compound 0296 (peptide) peptide: H[Aib]EGTFTSDVSSYLEEQAARK([AEEA-AEEA-γGlu-C16 diacid])FIAWLVRGRGGGGGASELSTAALGRLSK([AEEA-AEEA-γGlu-C16 diacid])ELHELATLPRTETGSGSP-NH2 | 29.9 pM | 4 pM |
| Compound 0415 (peptide) peptide: H[Aib]EGTFTSDVSSYLEEK([AEEA-AEEA-γGlu-Trx-C20 diacid])AAREFIEWLVRGRGEASELSTAALGRLSAELHELATLPRTETGSGSP-NH2 | 16.1 pM | 10.3 pM |
| Compound 0438 (not fully specified (residue 31)) peptide: H[Aib]EGTFTSDVSSYLEEQAAREFIEWLVRGRKEASELSTAALGRLSAELHELATLPRTETGSGSP-NH2 | 27.5 pM | 11.8 pM |
| Compound 0472 (peptide) peptide: HAEGTFTSDVSSYLEEK([AEEA-AEEA-γGlu-C18 diacid])AAREFIEWLVRGRGEASELSTAALGRLSAELHELATLPRTETGSGSP-NH2 | 24 pM | 2.8 pM |
| Compound 0397 (peptide) peptide: H[Aib]EGTFTSDVSSYLEEK([AEEA-AEEA-γGlu-C16 diacid])AAREFIAWLVRGRGGGGGEASELSTAALGRLSAELHELATLK([AEEA-AEEA-γGlu-C16 diacid])RTETGSGSP-NH2 | 18.5 pM | 3.8 pM |
| Compound 0417 (peptide) peptide: H[Aib]EGTFTSK([AEEA-AEEA-γGlu-Trx-C20 diacid])VSSYLEEQAAREFIEWLVRGRGEASELSTAALGRLSAELHELATLPRTETGSGSP-NH2 | 21 pM | 97.8 pM |
| Compound 0433 (peptide) peptide: HWEGTFTSDK([εLys-AEEA-AEEA-γGlu-Trx-C20 diacid])SSYLEEQAAREFIEWLVRGRGEASELSTAALGRLSAELHELATLPRTETGSGSP-NH2 | 12.9 pM | 30.7 pM |
| Compound 0439 (not fully specified (residue 21)) peptide: H[Aib]EGTFTSDVSSYLEEQAARKFIEWLVRGRGEASELSTAALGRLSAELHELATLPRTETGSGSP-NH2 | 10.7 pM | 8.3 pM |
| Compound 0431 (peptide) peptide: HAEGTFTSDK([AEEA-AEEA-γGlu-Trx-C20 diacid])SSYLEEQAAREFIEWLVRGRGEASELSTAALGRLSAELHELATLPRTETGSGSP-NH2 | 11.9 pM | 10.9 pM |
